From article PMC546145 come the findings set out here.

What all share (experiment): competition EMSA
On the technique in general: A gel shift assay detects complexes by their altered migration in electrophoresis.

The target in data set [1] is T1, Ku heterodimer, Ku70 subunit;Ku heterodimer, Ku80 subunit (human;human, UniProt P12956;P13010 1-609;1-732, |).
The target in data set [2] is T1, Ku heterodimer, Ku70 subunit;Ku …. The source holds these as a separate data set.
For data set [3] the target is unchanged. This is another data set of the same source.

Read-outs that look alike come from different tables or passages of the source.

T1 sequence (P12956 whole entry, chain 1 of 2): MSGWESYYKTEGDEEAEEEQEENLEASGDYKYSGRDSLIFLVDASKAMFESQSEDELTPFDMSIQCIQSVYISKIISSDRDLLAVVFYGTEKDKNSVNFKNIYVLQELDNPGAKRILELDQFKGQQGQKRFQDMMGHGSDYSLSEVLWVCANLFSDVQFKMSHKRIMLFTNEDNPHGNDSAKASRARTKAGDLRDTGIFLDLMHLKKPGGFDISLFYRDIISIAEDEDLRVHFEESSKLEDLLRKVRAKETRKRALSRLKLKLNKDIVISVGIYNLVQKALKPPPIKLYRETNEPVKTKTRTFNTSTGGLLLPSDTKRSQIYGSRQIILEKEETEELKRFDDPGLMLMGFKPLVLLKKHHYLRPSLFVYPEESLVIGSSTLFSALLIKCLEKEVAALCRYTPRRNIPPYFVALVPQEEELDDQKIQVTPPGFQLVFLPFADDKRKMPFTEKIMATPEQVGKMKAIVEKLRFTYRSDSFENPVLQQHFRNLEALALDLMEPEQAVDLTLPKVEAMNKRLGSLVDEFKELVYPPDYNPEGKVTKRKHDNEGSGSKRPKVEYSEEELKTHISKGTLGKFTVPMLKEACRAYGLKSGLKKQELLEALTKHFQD
T1 sequence (P13010 whole entry, chain 2 of 2): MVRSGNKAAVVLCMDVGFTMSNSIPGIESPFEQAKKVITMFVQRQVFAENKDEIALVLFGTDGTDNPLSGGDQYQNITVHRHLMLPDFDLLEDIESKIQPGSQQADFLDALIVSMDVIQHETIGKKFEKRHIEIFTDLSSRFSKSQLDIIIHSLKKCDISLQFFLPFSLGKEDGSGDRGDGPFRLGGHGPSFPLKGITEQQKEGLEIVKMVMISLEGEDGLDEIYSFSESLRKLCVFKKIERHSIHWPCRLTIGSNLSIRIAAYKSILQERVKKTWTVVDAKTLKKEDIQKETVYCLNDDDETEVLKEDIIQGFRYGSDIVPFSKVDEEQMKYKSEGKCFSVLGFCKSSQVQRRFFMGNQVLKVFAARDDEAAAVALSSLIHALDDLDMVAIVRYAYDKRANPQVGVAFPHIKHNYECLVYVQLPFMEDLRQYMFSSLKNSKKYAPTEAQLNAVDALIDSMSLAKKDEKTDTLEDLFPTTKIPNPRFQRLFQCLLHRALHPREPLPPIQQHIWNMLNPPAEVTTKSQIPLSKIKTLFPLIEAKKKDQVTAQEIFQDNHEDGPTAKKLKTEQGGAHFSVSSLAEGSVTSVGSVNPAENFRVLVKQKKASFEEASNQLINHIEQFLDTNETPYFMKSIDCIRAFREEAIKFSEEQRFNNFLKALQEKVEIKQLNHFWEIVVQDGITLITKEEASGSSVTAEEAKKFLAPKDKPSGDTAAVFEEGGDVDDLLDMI

B1: 5P/5B undamaged (dsDNA)
DNA 1: CCCCTGGCTTTCTTTTCCTCTTCCTTCCCC
DNA 2: GGGGAAGGAAGAGGAAAAGAAAGCCAGGGG
modifications: 5' biotin on strand 2
Turning to B1, the binding result in data set [1] is “binds”.

B2: MP/3B + Pt (dsDNA)
DNA 1: CCCCTCTCCTTCTTGGCTTCTTCCTTCCCC
DNA 2: GGGGAAGGAAGAAGCCAAGAAGGAGAGGGG
modifications: cisplatin adduct at central GG of strand 1 (15-16); 3' biotin on strand 2
In the case of B2, the binding result in data set [2] is given as “binds”.

B3: MP/5B + Pt (dsDNA)
DNA 1: B2 DNA 1
DNA 2: B2 DNA 2
modifications: cisplatin adduct at central GG of strand 1 (15-16); 5' biotin on strand 2
Consider B3, for which the binding result in data set [3] is given as “binds”.
